Read-outs that look alike come from different tables or passages of the source.
Key:
Assay in all cases: BLI heatmap
[1] = target: T1, IA peptide IAKLDEESILKQK (XAKLDEESILKQK, X = I)
T1 construct: Immobilized on the biolayer interferometry sensor
T1 peptide: IAKLDEESILKQK

[2] = target: T2, F peptide FAKLDEESILKQK (XAKLDEESILKQK, X = F)
T2 construct: Immobilized on the biolayer interferometry sensor
T2 peptide: FAKLDEESILKQK

[3] = target: T3, VA peptide VAKLDEESILKQK (XAKLDEESILKQK, X = V)
T3 construct: Immobilized on the biolayer interferometry sensor
T3 peptide: VAKLDEESILKQK

[4] = target: T1, IA peptide IAKLDEESILKQK …
[5] = target: T2, F peptide FAKLDEESILKQK (XAKLDEESILKQK, …)
[6] = target: T4, LA peptide LAKLDEESILKQK (XAKLDEESILKQK, X = L)
T4 construct: Immobilized on the biolayer interferometry sensor
T4 peptide: LAKLDEESILKQK

Binder | binding result [1] | binding result [2] | binding result [3] | binding result [4] | binding result [5] | binding result [6]
PS434 (other) MSRLPWKQEAKFAATVIIDFPDATLEAPTIEKKEATEQQIEMPWNVVVHNDPVNLMSYVTMVFQRVFGYPRERAEKHMLEVHHSGRSILWSGLRERAELYVQQLHGYLLLATIEKTV | no binding | binds | no binding | – | – | –
PS409 (other) MPARLTDIEGEPNTDPVEDVLLADPELKKPQMYAVVMYNDDYTPMEFVVDVLQNHFKHTLDSAISIMLAIHQQGKGIAGIYPKDIAETKAQTVNRKARQAGYPLLSQIEPQG | no binding | binds | no binding | – | – | –
PS394 (other) MAERRDTGDDEGTGLGIATKTRSKTKKPTPYRVLMLNDDYTPMEFVVLCLQRFFRMNMEEATRVMLHVHQKGVGVCGVFSYEVAETKVGQVIDFARANQHPLQCTLEKA | no binding | binds | no binding | – | – | –
PS419 (other) MEKEQSLCKEKTHVELSEPKHYKVVFHNDDFTTMDFVVKVLQLVFFKSQLQAEDLTMKIHLEGSATAGIYSYDIAQSKAQKTTQMAREEGFPLRLTVEPEDN | no binding | binds | no binding | – | – | –
PS395 (other) MTVSQSKTQGAPAAQSATELEYEGLWRVVVLNDPVNLMSYVVLVFKKVFGFDETTARKHMLEVHEQGRSVVWSGMREKAEAYAFTLQQWHLTTVLEQDEVR | no binding | binds | no binding | – | – | –
PS433 (other) MMSSLKECSIQALPSLDEKTKTEEDLSVPWKVIVLNDPVNLMSYVVMVFRKVFGYNENKATKHMMEVHQLGKSVLWTGQREEAECYAYQLQRWRLQTILEKDD | no binding | binds | no binding | – | – | –
PS412 (other) MATKREGSTLLEPTAAKVKPPPLYKVLLLNDDYTPMEFVVLVLKKFFGIDQERATQIMLKVHTEGVGVCGVYPRDIAHTKVEQVVDFARQHQHPLQCTMEES | no binding | binds | no binding | – | – | –
PS556 (other) MGDSNTSVAEPGEVTVVTTKPAPKKAKPKRQPKYHVVLWNDDDHTYEYVILMMHELFGHPVEKGFQIAKTVDADGRAICLTTTKEHAELKRDQIHAYGKDELIARCRGSMSSTIEPEC | – | – | – | binds | no binding | binds
PS575 (other) MASTQTPDLNEITEESTKSTGGPWRVVLWDDNEHTYEYVIEMLMEICTMTVEKAFLHAVQVDQEKRTVVFSGEFEHAEHVQERILTYGADPRMSNSKGSMSATLEK | – | – | – | binds | no binding | binds
PS407 (other) MPSNKRQMCLSDIKNSFNESGIVDWHISPRLANEPSEEGDSDLAVQTVPPELKRPPLYAVVLLNDDYTPMEFVIEILQQYFAMNLDQATQVMLTVHYEGKGVAGVYPRDIAETKANQVNNYARSQGHPLLCQIEPKD | no binding | binds | no binding | – | – | –
PS548 (other) MSDTITLPEEKTDVRTKRQPPYHVILLNDDDHTYQYVIYMLQTLFGHPPETGFKMAQEVDKTGRVIVDTTSLERAELKRDQIHAFGPDPYIERCKGSMSAMIEPSE | – | – | – | binds | no binding | binds
PS546 (other) MSDTITLPGRPEVERDERTRRQPPYNVILHNDDDHTFEYVIVMLNQLFGYPPEKGYEMAKEVHLNGRVIVLTTSKEHAELKRDQIHAFGPDPFSSKDCKGSMSASIEPAY | – | – | – | binds | no binding | binds
PS570 (other) MTGAGASQPSILEETEVRPRLSDGPWKVVLWDDDFHTYEYVIEMLMDVCQMPWEKAFQHAVEVDTRKKTIVFSGELEHAEFVHERILNYGPDPRMGSSKGSMTATLEQ | – | – | – | binds | no binding | binds
PS549 (other) MSESITTLPKKSRRLKEEEEQKTKRQPPYNVILLNDDDHTFEYVIFMLQKLFGHPPERGMQMAKEVHTTGRVIVMTTALELAELKRDQIHAFGPDPLIDRCKGSMSATIEPAPI | – | – | – | binds | no binding | binds
PS408 (other) MTDPPSKGREDVDLATRTKPKTQRPPLYKVLLLNDDFTPMEFVVHILERLFGMTHAQAIEIMLTVHRKGVAVVGVFSHEIAETKVAQVMELARRQQHPLQCTMEKE | no binding | binds | no binding | – | – | –
PS393 (other) MSDEDGEDGDENAVGIATRTRTRTKKPTPYRVLLLNDDYTPMEFVVLVLQRFFRMSIEDATRVMLQVHQKGVGVCGVFTYEVAETKVSQVIDFARQNQHPLQCTLEKA | no binding | binds | no binding | – | – | –
PS550 (other) MPTFTEPEVVNDTRILPPYHVILLNDDDHTYEYVIHMLQTLFGHPQERGFQLAVEVDKKGKAIVFTTSKEHAEFKRDQIHAFGADPLSSKNCKGSMSAVIEPSF | – | – | – | – | – | binds
PS578 (other) MSGTVVESKPRNSTQLAPRWKVIVHDDPVTTFDFVLGVLRRVFAKPPGEARRITREAHDTGSALVDVLALEQAEFRRDQAHSLARAEGFPLTLTLEPAD | – | – | – | – | binds | binds
PS418 (other) MSDHNIDHDTSVAVHLDVVVREPPMYRVVLLNDDFTPMEFVVELLMHFFRKTAEQATQIMLNIHHEGVGVCGTYPREIAETKVAQVHQHARTNGHPLKCRMEPS | no binding | binds | no binding | – | – | –
PS425 (other) MTHYFSNILRDQESPKINPKELEQIDVLEEKEHQIILYNDDVNTFEHVIDCLVKICEHNYLQAEQCAYIVHHSGKCSVKTGSLDELVPKCNALLEEGLSAEVV | no binding | binds | no binding | – | – | –
PS422 (other) MTQIKPQTIPDTDVISQTQSDWQMPDLYAVIMHNDDYTTMDFVVFLLNAVFDKPIEQAYQLMMQIHQTGRAVVAILPYEIAEMKVDEATSLAEQEQFPLFISIEQA | no binding | binds | no binding | – | – | –

Reference: US20210364527A1 (QUANTUM SI, published 2021)
